Assay in all cases: SPR, mAb captured, C2 mutant analyte;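 further: Anti-C2 mAbs captured on goat anti-human IgG Biacore CM5 chips, alanine or serine C2 surface mutants flowed over at 37 °C, double-referenced sensorgrams fitted to a 1:1 binding model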
The target in one experiment is T1, human C2 R434A (human, UniProt P06681 21-752).
T1 sequence: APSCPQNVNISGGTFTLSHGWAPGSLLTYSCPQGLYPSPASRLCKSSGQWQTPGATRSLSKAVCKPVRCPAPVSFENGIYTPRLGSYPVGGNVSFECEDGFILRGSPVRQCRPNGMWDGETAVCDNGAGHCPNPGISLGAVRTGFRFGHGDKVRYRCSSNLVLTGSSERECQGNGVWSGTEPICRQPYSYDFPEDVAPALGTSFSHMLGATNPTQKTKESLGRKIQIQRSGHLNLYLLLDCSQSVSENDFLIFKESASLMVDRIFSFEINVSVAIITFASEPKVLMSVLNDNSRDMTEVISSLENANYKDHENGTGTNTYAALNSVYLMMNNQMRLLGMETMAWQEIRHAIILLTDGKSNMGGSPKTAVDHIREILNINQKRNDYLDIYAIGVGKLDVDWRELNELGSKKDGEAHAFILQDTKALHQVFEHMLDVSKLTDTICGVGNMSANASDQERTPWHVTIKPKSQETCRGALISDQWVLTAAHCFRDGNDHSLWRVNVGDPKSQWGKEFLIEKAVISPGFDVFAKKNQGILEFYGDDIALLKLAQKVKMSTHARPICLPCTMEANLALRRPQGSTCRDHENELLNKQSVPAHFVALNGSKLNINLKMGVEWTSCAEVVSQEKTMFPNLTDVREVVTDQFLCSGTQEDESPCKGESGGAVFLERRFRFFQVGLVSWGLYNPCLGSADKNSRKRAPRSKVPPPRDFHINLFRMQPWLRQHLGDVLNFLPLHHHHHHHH

For another experiment, the target named is T2, human C2 L279A (human, UniProt P06681 21-752).
T2 sequence: T1 sequence with L259A, A414R

The target of a further experiment is T3, human C2 D441A (human, UniProt P06681 21-752).
T3 sequence: T1 sequence with A414R, D421A

The next experiment has as its target T4, human C2 D454A (human, UniProt P06681 21-752).
T4 sequence: T1 sequence with A414R, D434A

By Kd is commonly meant the concentration at which binding is half-saturated.

Numbering of substitutions follows the chain as printed.

B1: RF16-214 (antibody, V domains shown)
VH: EVQLLESGGGLVQPGGSLRLSCAASGFTFSWYQMMWVRQAPGKGLEWVSRIYPSGGGTAYADSVKGRFTISRDNSKNTLYLQMNSLRAEDTAVYYCARDAGYGDNWGQGTLVTVSS
VL: QSALTQPPSVSVSPGQTASITCSGDKLGEKYASWYQQKAGQSPVMVIYQDRKRPSGIPERFSGSNSGNTATLTISGTQAMDEADYYCQAWDTRAVVFGGGTKLTVLG
On to B1, for which the Kd with human C2 R434A stood at 230 nM; with human C2 L279A it was 240 nM; in the experiment with human C2 D441A, 51.5 nM; in the experiment with human C2 D454A, 111 nM.

The record behind these values is patent publication US20220332804A1 (CSL INNOVATION, published 2022).
